Source: US20150104385A1, “RADIO-PHARMACEUTICAL COMPLEXES” (Algeta ASA, priority 2012, published 2015)

Molecular target: T1, CD22 (Homo sapiens, UniProt P20273)
T1 construct: host or cells: Raji cells
Test: Binding of AGC1115 and AGC1100 to CD22-positive Raji cells by flow cytometry
Details: flow cytometry MFI, 1.5 h at 4° C., four-parameter fit, read-out: EC50 of fitted titration curve (binding potency)
Procedure: Binding of AGC1115 and AGC1100 (anti-human CD22, Immunomedics; hLL2, #1003164, 10 mg/ml) to CD22-positive Raji cells (ATCC, #CCL-86) was analysed by flow cytometry. The EC50 value determined from the fitted curve was used for comparison of the antibody versus the antibody conjugate binding potency. This analysis was used to confirm that antibody conjugate binding potency to CD22 was unaffected by the conjugation procedure.
Raji cells were grown in RPMI 1640 (PAA; #E15-840) in the presence of 10% fetal bovine serum (FBS) and 1% penicillin/streptomycin. For the flow cytometry analysis 50 ml cell culture was harvested by centrifugation at 4° C. for 5 min at 340×g. […] Subsequently, 20 μl of the preparation of resuspended cells was diluted 1:500 in Coulter Isoton II Diluent, and counted using Beckman Coulter Z2 instrumentation (Beckman Coulter; CA, USA). […]
AGC1115 and AGC1100 was diluted to 50 μg/ml and titrated in twelve points in 3-fold dilution steps. […] All samples were analysed in a V-shaped bottom 96-well plate. Fluorescent signal was recorded on a Beckman Coulter Cell Lab Quanta SC MPL flow cytometer (Beckman Coulter; CA, USA). […]
Data was fitted using the “log(agonist) vs. response—Variable slope (four parameters)” binding model in Graph Pad Prism (PrismSoftware; CA, USA) and the EC50 values was calculated from the fit (FIG. 2).

- EC50: 9 nM
Substance: AGC1100: anti-CD22 monoclonal antibody hLL2, also called epratuzumab
